Values of other authors in PMC4871753.

Target: RXFP1 (Homo sapiens) (UniProt Q9HBX9)
UniProt Q9HBX9, sequence (Q9HBX9 whole entry): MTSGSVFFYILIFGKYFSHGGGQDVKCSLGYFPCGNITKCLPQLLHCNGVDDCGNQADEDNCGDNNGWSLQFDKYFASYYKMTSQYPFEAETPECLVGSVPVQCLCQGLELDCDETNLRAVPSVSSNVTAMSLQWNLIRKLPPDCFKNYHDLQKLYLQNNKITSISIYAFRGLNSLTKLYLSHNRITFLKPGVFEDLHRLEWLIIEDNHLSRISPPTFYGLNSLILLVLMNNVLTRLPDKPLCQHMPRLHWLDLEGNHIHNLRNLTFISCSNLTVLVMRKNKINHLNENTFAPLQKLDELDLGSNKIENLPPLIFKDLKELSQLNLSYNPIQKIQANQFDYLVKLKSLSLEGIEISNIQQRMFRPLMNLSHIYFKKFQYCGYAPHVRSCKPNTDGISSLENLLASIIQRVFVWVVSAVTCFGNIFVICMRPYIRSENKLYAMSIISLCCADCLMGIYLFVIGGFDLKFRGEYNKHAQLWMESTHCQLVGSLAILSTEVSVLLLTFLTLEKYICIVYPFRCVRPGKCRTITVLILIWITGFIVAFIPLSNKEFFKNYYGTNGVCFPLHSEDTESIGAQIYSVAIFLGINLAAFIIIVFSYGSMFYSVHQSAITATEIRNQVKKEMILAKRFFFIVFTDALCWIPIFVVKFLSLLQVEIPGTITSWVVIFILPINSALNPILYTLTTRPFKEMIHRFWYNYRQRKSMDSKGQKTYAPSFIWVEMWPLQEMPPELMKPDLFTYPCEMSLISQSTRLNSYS

Kd: 1.11 nM
Substance: NLuc-conjugated relaxin (from UniProt P04090)
